Series [1] has as its target Cathepsin B (Homo sapiens) (UniProt P07858). Nature of the series: (§1) Affinity to cathepsin B.
Series [2] relates to COc1ccc2c(c1)Oc1cc(OC(=O)[C@H](C)NC(=O)OCC3c4ccccc4-c4ccccc43)ccc1C21OC(=O)c2ccccc21. The series is described as §1. The note with it: Homo sapiens.
Series [3] deals with COc1ccc2c(c1)Oc1cc(OC(=O)[C@H](CC(C)C)NC(=O)OC(C)(C)C)ccc1C21OC(=O)c2ccccc21. Described as §1. The settings on record: Homo sapiens.
The subject of series [4] is COc1ccc2c(c1)Oc1cc(OC(=O)[C@H](C)NC(=O)OC(C)(C)C)ccc1C21OC(=O)c2ccccc21. Described as §1. The settings on record: Homo sapiens.
For series [5], the system named is CC[C@H](NC(=O)OCC1c2ccccc2-c2ccccc21)C(=O)Oc1ccc2c(c1)Oc1cc(OC)ccc1C21OC(=O)c2ccccc21. The series is described as §1. The settings on record: Homo sapiens.
In series [6] the test system is COc1ccc2c(c1)Oc1cc(OC(=O)CNC(=O)OCC3c4ccccc4-c4ccccc43)ccc1C21OC(=O)c2ccccc21. The series is described as §1. The settings on record: Homo sapiens.
Series [7] has as its system CC[C@H](NC(=O)OC(C)(C)C)C(=O)Oc1ccc2c(c1)Oc1cc(OC)ccc1C21OC(=O)c2ccccc21. The series is described as §1. The settings on record: Homo sapiens.

This is an account of results in ChEMBL document CHEMBL1148676, “Fluorogenic ester substrates to assess proteolytic activity” (Bioorg Med Chem Lett, 2006).

The source made the active and inactive calls. The calls are words filed in the database; no cut-off is given here.

`COc1ccc2c(c1)Oc1cc(OC(C)=O)ccc1C21OC(=O)c2ccccc21` (centres undefined): the outcome in series [1] was inactive.

Consider `COc1ccc2c(c1)Oc1cc(OS(=O)(=O)c3ccc(C)cc3)ccc1C21OC(=O)c2ccccc21` (centres undefined), for which the result in series [1] was inactive.

`COc1ccc2c(c1)Oc1cc(OS(=O)(=O)c3ccc([N+](=O)[O-])cc3)ccc1C21OC(=O)c2ccccc21` (centres undefined): the result in series [1] was inactive.

On to “Cathepsin B (Homo sapiens) (from UniProt P07858)”, for which the Km in series [2] is 7.6 µM; in series [3], 2.7 µM; in series [4], 4.5 µM; in series [5] it was 7.2 µM; in series [6] it was 7.9 µM; in series [7] it was 2.2 µM.

What is called Km is the substrate concentration at which the rate is half of its maximum.
